Experiments:
[1] = target: SpaKC, class III lanthipeptide synthetase (LanKC) homolog from S. sparsogenes ATCC 25498 (S. sparsogenes ATCC 25498); assay: MST
[2] = target: SpaKC-SpaF complex (S. sparsogenes ATCC 25498); assay: MST
[3] = target: SpaF, FMN-dependent cysteine decarboxylase of the spa gene cluster (S. sparsogenes ATCC 25498); assay: crystal structure

Substance | Kd [1] | Kd [2] | stoichiometry N [3]
SpaA leader peptide | 275 nM |  | 
SpaA precursor peptide | 217 nM | 94 nM | 
SpaF, FMN-dependent cysteine decarboxylase of the spa gene cluster (enzyme) | 182 nM |  | 12
TvaF, cysteine decarboxylase from thioviridamide biosynthesis (enzyme) | 2270 nM |  | 

Reference: article doi:10.1101/2020.08.21.260323
